What was measured:
mass photometry = target: the molecule itself; test: mass photometry
ParT = target: T1, ParT (Streptomyces coelicolor A3(2), plasmid …, UniProt Q8VWE5 1-325); test: BLI
T1 sequence: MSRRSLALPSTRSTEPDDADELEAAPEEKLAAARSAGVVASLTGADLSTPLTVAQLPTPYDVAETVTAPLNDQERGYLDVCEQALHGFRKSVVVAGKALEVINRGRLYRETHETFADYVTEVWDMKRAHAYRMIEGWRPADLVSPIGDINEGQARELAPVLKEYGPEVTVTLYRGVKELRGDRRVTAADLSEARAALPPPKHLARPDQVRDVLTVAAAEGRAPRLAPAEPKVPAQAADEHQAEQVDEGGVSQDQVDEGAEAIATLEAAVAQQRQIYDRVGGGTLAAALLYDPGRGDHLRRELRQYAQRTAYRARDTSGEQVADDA

B1: ParT-His6 (wild type) (natural protein)
chain: MSRRSLALPSTRSTEPDDADELEAAPEEKLAAARSAGVVASLTGADLSTPLTVAQLPTPYDVAETVTAPLNDQERGYLDVCEQALHGFRKSVVVAGKALEVINRGRLYRETHETFADYVTEVWDMKRAHAYRMIEGWRPADLVSPIGDINEGQARELAPVLKEYGPEVTVTLYRGVKELRGDRRVTAADLSEARAALPPPKHLARPDQVRDVLTVAAAEGRAPRLAPAEPKVPAQAADEHQAEQVDEGGVSQDQVDEGAEAIATLEAAVAQQRQIYDRVGGGTLAAALLYDPGRGDHLRRELRQYAQRTAYRARDTSGEQVADDA
Mass photometry
  stoichiometry N: 2

B2: 40-bp parS duplex (dsDNA)
DNA 1: GGCCGACCTCGTGTCTCCAATTGGAGACATCAACGAGGGC
DNA 2: GCCCTCGTTGATGTCTCCAATTGGAGACACGAGGTCGGCC
ParT
  Kd: 680 ± 200 nM

B3: 40-bp scrambled parS duplex (dsDNA)
DNA 1: ATCGGGCACCTTAGGGCAATCGTAAGTTCGGCGCACGACC
DNA 2: GGTCGTGCGCCGAACTTACGATTGCCCTAAGGTGCCCGAT
ParT
  binding result: no binding

From article doi:10.1101/2024.05.08.592561 (bioRxiv, 2024)
